Source: publication PMC9352551, “Energetic determinants of animal cell polarity regulator Par-3 interaction with the Par complex” (The Journal of Biological Chemistry, 2022)

Experiments:
Conditions in all cases: both partners purified
[1] = molecular target: T1, Par-3 PDZ3 (his-purified, soluble) (Drosophila, UniProt O96782 616-741); experiment: supernatant depletion assay; GST-fused protein on glutathione agarose resin (solid phase, 'ligand'); soluble protein ('receptor') left in the supernatant at equilibrium quantified on a Coomassie gel; 1 h at 20 °C; 10 mM Hepes pH 7.5, 100 mM NaCl, 1 mM DTT, 200 μM ATP, 5 mM MgCl2, 0.1% Tween-20; single-site equation; 'apparent' for Par-3 variants that could bind more than one Par complex; ATP replaced with ADP in one …
T1 construct: Par-3 (Bazooka), Drosophila, residues 616-741; From pET19; source: E. coli BL21 (DE3), his-purified
T1 sequence (looked up): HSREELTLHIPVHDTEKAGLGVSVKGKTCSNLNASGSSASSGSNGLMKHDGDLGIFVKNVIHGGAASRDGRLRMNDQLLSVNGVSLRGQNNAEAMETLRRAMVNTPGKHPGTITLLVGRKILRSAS

[2] = molecular target: T2, Par-3 PDZ2 (his-purified, soluble) (Drosophila, UniProt O96782 444-533); experiment: as above
T2 construct: Par-3 (Bazooka), Drosophila, residues 444-533; From pET19; also called soluble PDZ2; source: E. coli BL21 (DE3), his-purified
T2 sequence (looked up): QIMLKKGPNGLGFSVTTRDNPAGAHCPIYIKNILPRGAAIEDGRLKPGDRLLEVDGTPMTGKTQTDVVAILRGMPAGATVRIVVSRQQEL

MBP-Par-3 PDZ1-APM = molecular target: T3, MBP-Par-3 PDZ1-APM (Drosophila, UniProt O96782 309-987); experiment: pull-down; GST-aPKC PBM on glutathione resin with Par-3 PDZ1-APM and the Par complex as soluble proteins; room temperature, 30 to 60 min; 10 mM Hepes pH 7.5, 100 mM NaCl, 1 mM DTT, 200 μM ATP, 5 mM MgCl2, 0.1% Tween-20; Coomassie gel
T3 construct: Par-3 (Bazooka), Drosophila, residues 309-987 (PDZ1 to the aPKC phosphorylation motif); From pMAL; construct as in PMID 32084408; not shown: MBP, N-terminal, kept; His tag, C-terminal, kept
T3 sequence (looked up): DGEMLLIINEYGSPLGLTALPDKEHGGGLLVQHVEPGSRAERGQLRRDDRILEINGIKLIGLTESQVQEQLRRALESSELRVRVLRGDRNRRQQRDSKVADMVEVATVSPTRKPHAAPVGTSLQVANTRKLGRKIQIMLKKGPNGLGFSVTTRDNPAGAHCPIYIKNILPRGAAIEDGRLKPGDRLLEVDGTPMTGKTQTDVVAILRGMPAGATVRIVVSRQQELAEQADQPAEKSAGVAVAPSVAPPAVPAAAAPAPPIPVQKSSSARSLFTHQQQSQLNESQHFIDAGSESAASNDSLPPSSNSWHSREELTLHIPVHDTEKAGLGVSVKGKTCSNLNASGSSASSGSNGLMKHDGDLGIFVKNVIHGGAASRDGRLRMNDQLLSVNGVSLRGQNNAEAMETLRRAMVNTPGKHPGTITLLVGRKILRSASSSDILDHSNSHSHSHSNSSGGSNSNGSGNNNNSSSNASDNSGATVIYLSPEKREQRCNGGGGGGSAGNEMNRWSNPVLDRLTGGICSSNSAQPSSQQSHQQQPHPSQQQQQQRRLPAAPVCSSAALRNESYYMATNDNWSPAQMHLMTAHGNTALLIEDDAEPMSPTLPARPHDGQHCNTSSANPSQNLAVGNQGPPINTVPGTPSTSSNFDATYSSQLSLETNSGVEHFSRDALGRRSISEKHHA

Measured: binding result

B1: GST-aPKC PBM (domain or fragment, Drosophila, UniProt A1Z9X0 583-606, looked up)
chain: NIDQSEFEGFEYVNPLLMSLEDCV
notes: From pGEX; construct as in PMID 32084408
binds: all assays above
